Patent KR20230168598A (dated 2023)

T1: 재조합 인간 TIGIT 단백질 (acrobiosystems, China) (human, UniProt Q495A1 22-141)
T1 construct: Bought recombinant protein; also called hTIGIT
T1 sequence: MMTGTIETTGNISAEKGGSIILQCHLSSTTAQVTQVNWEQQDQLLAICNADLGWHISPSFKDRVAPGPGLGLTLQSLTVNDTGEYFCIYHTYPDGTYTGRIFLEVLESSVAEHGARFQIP


Target: T1, 재조합 인간 TIGIT 단백질 (acrobiosystems, China)
Assay: SPR (Biacore T200), multi-cycle kinetics, antibody captured, TIGIT as analyte, 1:1 model

Kd	koff	kon	Binder
1.89 nM	0.000445 s⁻¹	235000 M⁻¹ s⁻¹	마우스 항-TIGIT 단클론 항체 2B7 (mouse backbone mIgG1) (antibody, V domains shown, also called 항-TIGIT 2B7 항체; 클론 2B7) VH: EVQLQQSGPELVKPGASVKISCKTSGSTFTEYTMHWVKQSHGKSLEWIGGLNPNNGGTSYNQRFKDRATLTVDKSSSTAYMELRSLTSEDSAVYYCTRGTYYDYSFAYWGQGTLVTVSA VL: DIVMTQSHKFMSTSVGDRVSITCKASHYVSTAVAWYQQKPGQSPKLLIYSPSYRYTGVPDRFTGSGSGTDFTFTISSVQAEDLAVYYCHQHYSTPWTFGGGTKLEIK
0.986 nM	0.000216 s⁻¹	219000 M⁻¹ s⁻¹	마우스 항-TIGIT 단클론 항체 3F8 (mouse backbone mIgG1) (antibody, V domains shown, also called 항-TIGIT 3F8 항체; 클론 3F8) VH: EVQLQQSGPELVKPGASMKISCKASGYSFTDYIMNWVKQSHGKNLEWIGLSIPYNGGTSYNQKFEGKATLTVDKSSSTAYMELLSLTSEDSAVYYCARGIKGYFAMDYWGQGTSVTVSS VL: DVVVTQTPLSLPVSFGDQVSISCRSSQSLVNSFGKTYLSWFLHKPGQSPQLIMYGVSNRFSGVPDRFSGSGSGTDFTLKISTIKPEDLGMYYCLQGTHQPWTFGGGTKLEIK
